Data reported in article PMC11969024 (2025).

B1: peptide HD2 (from tick evasin EVA4) / CCL17 (biotinylated, synthetic) (parent complex)
chain 1: EEDDYTAYAPLTCYFT
chain 2: ARGTNVGRECCLEYFKGAIPLRKLKTWYQTSEDCSRDAIVFVTVQGRAICSDPNNKRVKNAVKYLQSLERS

Variants of: B1

Variant | enrichment
chain 1 EEDDYTAYNPLTCYFT [chain 1 A9N] | -4.52 log2 (difference from the parental peptide)
chain 1 EEDDYTAYLPLTCYFT [chain 1 A9L] | -7.01 log2 (difference from the parental peptide)
chain 1 EEDDYTAYFPLTCYFT [chain 1 A9F] | -8.26 log2 (difference from the parental peptide)
chain 1 EEDDYTAYQPLTCYFT [chain 1 A9Q] | -1.77 log2 (difference from the parental peptide)
chain 1 EEDDYTAYSPLTCYFT [chain 1 A9S] | -0.697 log2 (difference from the parental peptide)
chain 1 EEDDYTAYRPLTCYFT [chain 1 A9R] | -4.45 log2 (difference from the parental peptide)
chain 1 EEDDYTAYTPLTCYFT [chain 1 A9T] | -4.51 log2 (difference from the parental peptide)
chain 1 EEDEYTAYAPLTCYFT [chain 1 D4E] | -0.373 log2 (difference from the parental peptide)
chain 1 EEDTYTAYAPLTCYFT [chain 1 D4T] | -5.39 log2 (difference from the parental peptide)
chain 1 EEDYYTAYAPLTCYFT [chain 1 D4Y] | -5.69 log2 (difference from the parental peptide)
chain 1 EEDHYTAYAPLTCYFT [chain 1 D4H] | -6.29 log2 (difference from the parental peptide)
chain 1 EEDGYTAYAPLTCYFT [chain 1 D4G] | -4.74 log2 (difference from the parental peptide)
chain 1 EEDAYTAYAPLTCYFT [chain 1 D4A] | -3.66 log2 (difference from the parental peptide)
chain 1 EEDWYTAYAPLTCYFT [chain 1 D4W] | -7.69 log2 (difference from the parental peptide)
chain 1 EEDQYTAYAPLTCYFT [chain 1 D4Q] | -3.42 log2 (difference from the parental peptide)
chain 1 EPDDYTAYAPLTCYFT [chain 1 E2P] | -2.4 log2 (difference from the parental peptide)
chain 1 ERDDYTAYAPLTCYFT [chain 1 E2R] | -1.35 log2 (difference from the parental peptide)
chain 1 ELDDYTAYAPLTCYFT [chain 1 E2L] | -1.6 log2 (difference from the parental peptide)
chain 1 EADDYTAYAPLTCYFT [chain 1 E2A] | -0.532 log2 (difference from the parental peptide)
chain 1 EVDDYTAYAPLTCYFT [chain 1 E2V] | -1.03 log2 (difference from the parental peptide)
chain 1 ECDDYTAYAPLTCYFT [chain 1 E2C] | -10.1 log2 (difference from the parental peptide)
chain 1 EEDDYTVYAPLTCYFT [chain 1 A7V] | -4.48 log2 (difference from the parental peptide)
chain 1 EEDDYTPYAPLTCYFT [chain 1 A7P] | 1.3 log2 (difference from the parental peptide)

Variant | enrichment
chain 1 EEDDYTYYAPLTCYFT [chain 1 A7Y] | -1.58 log2 (difference from the parental peptide)
chain 1 EEDDYTKYAPLTCYFT [chain 1 A7K] | 3.56 log2 (difference from the parental peptide)
chain 1 EEDDYTHYAPLTCYFT [chain 1 A7H] | 1.03 log2 (difference from the parental peptide)
chain 1 EEDDYTTYAPLTCYFT [chain 1 A7T] | -1.52 log2 (difference from the parental peptide)
chain 1 EEDDYTRYAPLTCYFT [chain 1 A7R] | 3.96 log2 (difference from the parental peptide)
chain 1 EEDDYTLYAPLTCYFT [chain 1 A7L] | -0.26 log2 (difference from the parental peptide)
chain 1 EEDDYTIYAPLTCYFT [chain 1 A7I] | -4.17 log2 (difference from the parental peptide)
chain 1 EEDDYTQYAPLTCYFT [chain 1 A7Q] | 1.91 log2 (difference from the parental peptide)
chain 1 EEDDATAYAPLTCYFT [chain 1 Y5A] | -5.17 log2 (difference from the parental peptide)
chain 1 EEDDHTAYAPLTCYFT [chain 1 Y5H] | -5.84 log2 (difference from the parental peptide)
chain 1 EEDDVTAYAPLTCYFT [chain 1 Y5V] | -6.56 log2 (difference from the parental peptide)
chain 1 EEDDLTAYAPLTCYFT [chain 1 Y5L] | -3.76 log2 (difference from the parental peptide)
chain 1 EEDDDTAYAPLTCYFT [chain 1 Y5D] | -5.57 log2 (difference from the parental peptide)
chain 1 EEDDCTAYAPLTCYFT [chain 1 Y5C] | -5.02 log2 (difference from the parental peptide)
chain 1 EEDDPTAYAPLTCYFT [chain 1 Y5P] | -4.51 log2 (difference from the parental peptide)
chain 1 EEDDYTAYAQLTCYFT [chain 1 P10Q] | -4.91 log2 (difference from the parental peptide)
chain 1 EEDDYTAYALLTCYFT [chain 1 P10L] | -8.28 log2 (difference from the parental peptide)
chain 1 EEDDYTAYAFLTCYFT [chain 1 P10F] | -7.51 log2 (difference from the parental peptide)
chain 1 EEDDYTAYATLTCYFT [chain 1 P10T] | -7.97 log2 (difference from the parental peptide)
chain 1 EEDDYGAYAPLTCYFT [chain 1 T6G] | 2.24 log2 (difference from the parental peptide)
chain 1 EEDDYQAYAPLTCYFT [chain 1 T6Q] | 0.398 log2 (difference from the parental peptide)
chain 1 EEDDYDAYAPLTCYFT [chain 1 T6D] | 1.63 log2 (difference from the parental peptide)
chain 1 EEDDYNAYAPLTCYFT [chain 1 T6N] | 0.737 log2 (difference from the parental peptide)

Variant | enrichment
chain 1 EEDDYMAYAPLTCYFT [chain 1 T6M] | -0.648 log2 (difference from the parental peptide)
chain 1 EEDDYFAYAPLTCYFT [chain 1 T6F] | -2.91 log2 (difference from the parental peptide)
chain 1 EEDDYSAYAPLTCYFT [chain 1 T6S] | 2.6 log2 (difference from the parental peptide)
chain 1 EEDDYWAYAPLTCYFT [chain 1 T6W] | 0.392 log2 (difference from the parental peptide)
chain 1 EEDDYEAYAPLTCYFT [chain 1 T6E] | 1.53 log2 (difference from the parental peptide)
chain 1 EEDDYKAYAPLTCYFT [chain 1 T6K] | 0.208 log2 (difference from the parental peptide)
chain 1 EEDDYTAYAPRTCYFT [chain 1 L11R] | 3.2 log2 (difference from the parental peptide)
chain 1 EEDDYTAYAPPTCYFT [chain 1 L11P] | -5.62 log2 (difference from the parental peptide)
chain 1 EEDDYTAYAPCTCYFT [chain 1 L11C] | 0.521 log2 (difference from the parental peptide)
chain 1 EEDDYTAYAPHTCYFT [chain 1 L11H] | 2.36 log2 (difference from the parental peptide)
chain 1 EEDDYTAYAPFTCYFT [chain 1 L11F] | -0.993 log2 (difference from the parental peptide)
chain 1 EEDDYTAYAPSTCYFT [chain 1 L11S] | -0.205 log2 (difference from the parental peptide)
chain 1 EEDDYTAYAPMTCYFT [chain 1 L11M] | 3.11 log2 (difference from the parental peptide)
chain 1 GEDDYTAYAPLTCYFT [chain 1 E1G] | 0.607 log2 (difference from the parental peptide)
chain 1 KEDDYTAYAPLTCYFT [chain 1 E1K] | -0.679 log2 (difference from the parental peptide)
chain 1 HEDDYTAYAPLTCYFT [chain 1 E1H] | -0.323 log2 (difference from the parental peptide)
chain 1 YEDDYTAYAPLTCYFT [chain 1 E1Y] | -0.248 log2 (difference from the parental peptide)
chain 1 PEDDYTAYAPLTCYFT [chain 1 E1P] | -1.24 log2 (difference from the parental peptide)
chain 1 FEDDYTAYAPLTCYFT [chain 1 E1F] | -1.75 log2 (difference from the parental peptide)
chain 1 REDDYTAYAPLTCYFT [chain 1 E1R] | -1.72 log2 (difference from the parental peptide)
chain 1 QEDDYTAYAPLTCYFT [chain 1 E1Q] | 0.156 log2 (difference from the parental peptide)
chain 1 SEDDYTAYAPLTCYFT [chain 1 E1S] | 0.17 log2 (difference from the parental peptide)
chain 1 WEDDYTAYAPLTCYFT [chain 1 E1W] | -2.36 log2 (difference from the parental peptide)

Variant | enrichment
chain 1 TEDDYTAYAPLTCYFT [chain 1 E1T] | -0.325 log2 (difference from the parental peptide)
chain 1 EEDDYTAYAPLTCYFY [chain 1 T16Y] | -0.84 log2 (difference from the parental peptide)
chain 1 EEDDYTAYAPLTCYFN [chain 1 T16N] | 0.157 log2 (difference from the parental peptide)
chain 1 EEDDYTAYAPLTCYFK [chain 1 T16K] | 0.193 log2 (difference from the parental peptide)
chain 1 EEDDYTAYAPLTCYFL [chain 1 T16L] | 0.451 log2 (difference from the parental peptide)
chain 1 EEDDYTAYAPLTCYFH [chain 1 T16H] | 0.123 log2 (difference from the parental peptide)
chain 1 EEDDYTAYAPLTCYFE [chain 1 T16E] | 1.12 log2 (difference from the parental peptide)
chain 1 EEDDYTAYAPLTCYFF [chain 1 T16F] | -0.625 log2 (difference from the parental peptide)
chain 1 EEDDYTAYAPLTCYFW [chain 1 T16W] | -1.23 log2 (difference from the parental peptide)
chain 1 EEDDYTAYAPLTCYFI [chain 1 T16I] | -0.321 log2 (difference from the parental peptide)
chain 1 EEDDYTAYAPLTCYFQ [chain 1 T16Q] | 1.17 log2 (difference from the parental peptide)
chain 1 EEDDYTAYAPLTCVFT [chain 1 Y14V] | -3.57 log2 (difference from the parental peptide)
chain 1 EEDDYTAYAPLTCAFT [chain 1 Y14A] | -6.44 log2 (difference from the parental peptide)
chain 1 EEDDYTAYAPLTCPFT [chain 1 Y14P] | -7.37 log2 (difference from the parental peptide)
chain 1 EEDDYTAYAPLTCQFT [chain 1 Y14Q] | -4.69 log2 (difference from the parental peptide)
chain 1 EEDDYTAYAPLTCWFT [chain 1 Y14W] | -0.976 log2 (difference from the parental peptide)
chain 1 EEDDYTAYAPLTCFFT [chain 1 Y14F] | -0.272 log2 (difference from the parental peptide)
chain 1 EEDDYTAYAPLTCMFT [chain 1 Y14M] | -4.32 log2 (difference from the parental peptide)
chain 1 EEDDYTAYAPLECYFT [chain 1 T12E] | -5.73 log2 (difference from the parental peptide)
chain 1 EEDDYTAYAPLCCYFT [chain 1 T12C] | -3.34 log2 (difference from the parental peptide)
chain 1 EEDDYTAYAPLVCYFT [chain 1 T12V] | -0.896 log2 (difference from the parental peptide)
chain 1 EEDDYTAYAPLLCYFT [chain 1 T12L] | 0.297 log2 (difference from the parental peptide)
chain 1 EEDDYTAYAPLFCYFT [chain 1 T12F] | 0.112 log2 (difference from the parental peptide)

Variant | enrichment
chain 1 EERDYTAYAPLTCYFT [chain 1 D3R] | -5.97 log2 (difference from the parental peptide)
chain 1 EEPDYTAYAPLTCYFT [chain 1 D3P] | -2.92 log2 (difference from the parental peptide)
chain 1 EEWDYTAYAPLTCYFT [chain 1 D3W] | -4.02 log2 (difference from the parental peptide)
chain 1 EENDYTAYAPLTCYFT [chain 1 D3N] | -1.74 log2 (difference from the parental peptide)
chain 1 EEGDYTAYAPLTCYFT [chain 1 D3G] | -4.23 log2 (difference from the parental peptide)
chain 1 EEMDYTAYAPLTCYFT [chain 1 D3M] | -4.48 log2 (difference from the parental peptide)
chain 1 EEQDYTAYAPLTCYFT [chain 1 D3Q] | -1.63 log2 (difference from the parental peptide)
chain 1 EESDYTAYAPLTCYFT [chain 1 D3S] | -2.79 log2 (difference from the parental peptide)
chain 1 EEKDYTAYAPLTCYFT [chain 1 D3K] | -3.46 log2 (difference from the parental peptide)
chain 1 EEDDYTAYAPLTPYFT [chain 1 C13P] | -6.7 log2 (difference from the parental peptide)
chain 1 EEDDYTAYAPLTRYFT [chain 1 C13R] | -10.7 log2 (difference from the parental peptide)
chain 1 EEDDYTAYAPLTYYFT [chain 1 C13Y] | -5.68 log2 (difference from the parental peptide)
chain 1 EEDDYTAYAPLTIYFT [chain 1 C13I] | -2.82 log2 (difference from the parental peptide)
chain 1 EEDDYTAYAPLTEYFT [chain 1 C13E] | -7.45 log2 (difference from the parental peptide)
chain 1 EEDDYTASAPLTCYFT [chain 1 Y8S] | -8.85 log2 (difference from the parental peptide)
chain 1 EEDDYTAYAPLTCYWT [chain 1 F15W] | -1.65 log2 (difference from the parental peptide)
chain 1 EEDDYTAYAPLTCYCT [chain 1 F15C] | -5.94 log2 (difference from the parental peptide)
chain 1 EEDDYTAYAPLTCYDT [chain 1 F15D] | -0.947 log2 (difference from the parental peptide)
chain 1 EEDDYTAYAPLTCYET [chain 1 F15E] | -1.17 log2 (difference from the parental peptide)
chain 1 EEDDYTAYAPLTCYIT [chain 1 F15I] | 0.435 log2 (difference from the parental peptide)
